Measurements: patent US8647868B2, “Compositions and methods for increasing production of recombinant gamma-carboxylated proteins” (Wake Forest University Health Sciences, priority 2005, dated 2014)

B1: reduced RNAse: bovine ribonuclease B reduced with DTT; used to trigger VKOR activity (protein, UniProt P61823 27-150, looked up)
Ribonuclease pancreatic: KETAAAKFERQHMDSSTSAASSSNYCNQMMKSRNLTKDRCKPVNTFVHESLADVQAVCSQKNVACKNGQTNCYQSYSTMSITDCRETGSSKYPNCAYKTTQANKHIIVACEGNPYVPVHFDASV
modifications: reduced with DTT

How the values were obtained:
[1] = tested on: blood clotting activity; assay: Blood clotting activity (APTT) of purified r-hFIX; format: biochemical, human; settings: purified from medium of 200 nM siRNA SMART pool treated (r-hFIX+VKORC1) BHK cells
Description: Warfarin sensitive VKOR activity was measured as described (19) by estimating the percent conversion of vitamin K1 2,3-epoxide (Vit.K>O) to vitamin K1. The vitamin and the epoxide were separated on a reversed phase C18 column in 100% methanol and quantified against external standards. VKOR activity was either triggered with 5 mM DTT or 0.32 mM reduced RNAse. Reduced bovine RNAse was prepared according to a modified method originally described by Rupp et al. (20). One hundred mg RNAse was dissolved in 500 μl of 0.2 M Tris-Acetate, 6 M guanidinium hydrochloride, pH 8.0. Seventy-two mg DTT was added and the solution was left at 37° C. for one hour. Then the pH was adjusted to 4.0 with acetic acid and DTT, Tris and guanidinium hydrochloride removed by gel filtration on a column of Sephadex G-25 equilibrated in 0.1 M acetic acid. Prior to chromatography, the column resin and the 0.1 M acetic acid were saturated with N2. The void volume fraction containing reduced RNAse was distributed into sealed 0.75 ml serum flasks filled with N2 which were stored at 4° C. until use. […] Blood clotting activities of purified r-hFIX and plasma hFIX were determined with the Activated Partial Thromboplastin Time (APPT) kit APTT-SP (liquid)-0020006300 from Instrumentation Laboratory, Lexington, Mass. […]

[2] = tested on: γ-carboxylase; assay: FLEEL γ-carboxylation in extracted rat liver microsomes triggered by reduced RNAse; format: biochemical; settings: 40 μM vitamin K1 2,3-epoxide, no DTT
Description: Rat liver microsomes extracted of luminal and peripherally bound membrane proteins (see Experimental Procedures) were tested for FLEEL γ-carboxylation when the reaction was triggered by reduced RNAse (black bar) and reduced vitamin K1H2 (shaded bar). When reduced RNAse was used, the test system contained 40 μM vitamin K1 2,3-epoxide as the source of the γ-carboxylase cofactor. No DTT was present in the assays. Each bar represents the average activity of three parallel incubations. Standard deviation is shown on each bar.
For removal of microsomal luminal and peripherally bound membrane proteins, microsomes obtained from 4 g of rat liver were suspended in 8 ml of 100 mM Na2CO3, 1.2 M KCl, 0.025% deoxycholate, pH 11.5 with a Potter Elvehjelm glass homogenizer and centrifuged at 100,000×g for 45 min (14). […]
Warfarin sensitive VKOR activity was measured as described (19) by estimating the percent conversion of vitamin K1 2,3-epoxide (Vit.K>O) to vitamin K1. The vitamin and the epoxide were separated on a reversed phase C18 column in 100% methanol and quantified against external standards. […] Blood clotting activities of purified r-hFIX and plasma hFIX were determined with the Activated Partial Thromboplastin Time (APPT) kit APTT-SP (liquid)-0020006300 from Instrumentation Laboratory, Lexington, Mass. […]

Molecule	specific activity of functional r-hFIX [1] [units/mg]	FLEEL γ-carboxylation triggered by reduced RNAse [2]
r-hFIX: functional recombinant human factor IX purified from medium of engineered BHK cells	147	–
B1	–	to the same extent as chemically reduced vitamin K1H2
